Target: HLA-A2 molecules
Assay: T2A2 peptide binding assay to HLA-A2

Binder | T2A2 Binding
QQYNKPLCDL (modifications not checked) [HPV-16 E6 native peptide E6-3 (E6 90-99)] | 1020
YMLDLQPET (modifications not checked) [HPV-16 E7 native peptide E7-1 (E7 11-19)] | 1100
